Source: PMC9659335, “An unexpected role for leucyl aminopeptidase in UV tolerance revealed by a genome-wide fitness assessment in a model cyanobacterium” (Proceedings of the National Academy of Sciences of the …, 2022)

Tests used:
purified protein [1] = substrate: CC(C)C[C@H](N)C(=O)Nc1ccc([N+](=O)[O-])cc1; assay: purified protein; format: biochemical, Synechococcus elongatus; conditions: pH 7.5, 50 mM Tris-HCl, 0.2 mM MnCl2, 37 °C, 5 µg/mL enzyme
purified protein [2] = substrate: N[C@@H](CS)C(=O)NCC(=O)O; assay: purified protein; format: biochemical, Synechococcus elongatus; conditions: pH 7.5, 50 mM Tris-HCl, 0.2 mM MnCl2, 37 °C, 5 µg/mL enzyme

B1: SynPCC7942_1190 (LAP, leucyl aminopeptidase) (Synechococcus elongatus PCC 7942 = FACHB-805) (protein)
chain: MTFQAIATHPQDWTGDTLALGLTTAAIGETLSSELQKLDQQWNGVLQELISDSEFKAKLAETTTTRIGGSIRKLILVGLGESPTTEDYRRAAAAVAKQARSFKSQTLAIAFPPSDDPAAIASAIVEGISLALYKDQRFKSEPDTASGPSSIELLGLAGQEAAIARAEQVVAGVELARQLVAAPANVVTPVTMADTAQELAAELGLELEILEADECEKRGMGAFLGVAKASDLPPKFIHLTYRPESTPRRKLAIVGKGLTFDSGGYNIKGAGSGIEMMKTDMGGAAATLGAAKAIGLIKPDVEVHFISAVTENMISGRGMHPGDILTASNGKTIEVNNTDAEGRLTLADALVFADGLGVDAIVDLATLTGACIIALGDDIAGLWSPSDDLAEQLLQAGKAAGEKLWRLPLEEPYLDGLKSPVADYKNTGPRAGGSITAALFLKQFVKHPVWAHLDVAGPVWSDKEKHYNPAGATGYGVRTLVNWVLS
notes: full-length gene in pET-28b(+) (pAM5836), Strep-tag (text: N terminus)
Km (purified protein [1]): 7.44 mM
Km (purified protein [2]): 1.21 mM
